Results taken from publication PMC8355051 (Nature biotechnology, 2021).

Assays:
[1] = molecular target: Spike-RBD-25aa-SmBiT-12xHisTag (SARS-CoV-2, UniProt P0DTC2); assay: split reporter
[2] = molecular target: Spike-RBD-15aa-LgBiT-12xHisTag (SARS-CoV-2, UniProt P0DTC2); assay: split reporter
[3] = molecular target: Biotinylated Spike RBD protein (SARS-CoV-2, UniProt P0DTC2, biotin); assay: BLI

Measured: binding result

B1: C105 IgG (antibody, V domains shown)
VH: QVQLVESGGGLIQPGGSLRLSCAASGFTVSSNYMSWVRQAPGKGLEWVSVIYSGGSTYYADSVKGRFTISRDNSKNTLYLQMNSLRAEDTAVYYCARGEGWELPYDYWGQGTLVTVSS
VL: QSALTQPPSASGSPGQSVTISCTGTSSDVGGYKYVSWYQQHPGKAPKLMIYEVSKRPSGVPDRFSGSKSGNTASLTVSGLQAEDEADYYCSSYEGSNNFVVFGGGTKLTVL
binds: [1] | [2] | [3]
